Experimental data reported in the domain aggregation screens of Martell et al. (2025).

Assay: soluble fraction after stress (log2 fold change); higher = more stays soluble; pooled small domains, quantitative proteomics
Settings: stress: 50 degC
In short: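 Each library was heated to 50°C as a stress step. The libraries, made up of small protein domains, were pooled and analysed at high throughput by quantitative proteomics. The reported value is the base-two logarithm of the fold change in each protein's soluble amount after stress, taken as a measure of aggregation propensity. The higher the value, the more protein stays in solution.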

Sequence | soluble fraction (log2)
HMAEPEALLAMAQRILGEEVAQSLFQGAAREQGKEGYLPDPTPAFLDALEARLSGSVGAATAHAMISQLVG | -0.0483
HMPLLKIGAQGHDVRVVQEALQRAGYAIEGVTGIFDEATREAVLAFQRDQQLTESGTVDRATWHALRR | 0.134
HMSNGYVTAKTTVNVRKSASESGERLGVIYQGDKLELVMNQADGWTKVKYKGQTAYVKSEFM | -0.6
HMEIPRYRLIGADGGRMVDLGEGQGAIPPVDVKRGMIDMPGLGKGYYTADGKSAVITNADGSKTRVL | -0.034
HMSNVKVYPNPTSGKLTIDAENYKGVEVYDTSGRLIVKSELRTIDLEEQSKGLYLLKVNANGTTQEFKVFK | 0.0145
HMDGASVQRITELTATLNRYRHEYYNLAKPSVSDAVYDRLFDELAALEQKTGIVLSNSPTQTV | -0.247
HMRPEKLVLKALRGAHGPLSAEEVAGRIEADGGAGLDVARVEHVLGQLERSGTVAALGGGKYLALR | 0.281
HMPGLDTTILSDILSLKKELPSRSAAKILIMLILAKRIEEGSLNLRTINRILNQYGYTRESLL | 0.0736
HMRQNPESFLNHKVKKNESLESLTKKYELTENEIIFYNPLIQKIGLKKRMILKIPIYNNQNLVTKSVD | 0.256
HMPIHAGERLTLRLAGEGREAGQAIGYLEDGTLVIVERARHLIGQDVTVEVTRTLQTAGGRLVFAHLVE | -0.531
HMDEQLAWLYRKINAFSEIDKALILLYLEDKKYDEIAETLGISSVNARVKMNRIKKRLKEMINDR | -2.53
HMKIGIYPGTFDPITHGHTDIIRRSLRVFDKVVVAVAPNPSKHPLFTLTERLEMIRIVMKELEHVEVT | 0.0231
HMLKEGIKEKINQLQVYADKNDNIIWYDRVVDILSDKDDSVTDEMIEAAIRTLEEAGISVERKQ | 0.0259
HMGTTTPPATRKGKVTSSFLNVRSGPSTANAKVAELKQNAVVTIYETSSNGWHRIGVNQWVIGTNIQE | -0.441
HMRQKTTFFATESFELPNGEKVEEGQIFRLNDGAFNIAEQQGITRFLTSEANYGRMIAANAEVEKAKLDA | 0.268
HMDYYSILGVDRNATGEDIKKAFKKKAMKYHPDRNPDNKESERKFKEAKEAYDTLSNPQKKSMYDQFGT | 0.0734
HMSADLVYLRKRLQDAIAQLPENMRTAYTLFQIANRSIREISELTGASESLVKVRIHRAKGKLQKQLEDLK | -1.33
HMSRELVILGNSMLNNALKAFHVSPASIKKKHWDKLILDYHLESKNNILIDIALGKRINVMVAHQLTSIID | 0.56
HMGRDWKTDLLNLATARGWGDVSYEVTGEGPDHARVYTAVAIVANQKTGTGVGPSKKEAERLAAEQAYRML | -0.142

Sequence | soluble fraction (log2)
HMKKLTNKQIIFFAEKLAHHSDFASKYSKVGESYEEFAIRLEKELNTPQKVEFYSSYLEKVGFK | -2.14
HMGSEGVKVEDTIGMSEAEATATLGKSGFVVNKTESHDPYIKAGNVITQSPAAGSKAPKGTTVTLTISLGP | 0.131
HMSELIDSLTEAVRSAPDAVPLRLHLAELLLADGQRDRAFAQLGQVLAKDPQNARALEMLGVGS | -0.0386
HMERLKYSQVVDLFKGEQVKSFVLDESNQLKMELQDGSTVSYKLRSFEQFYLDLSDTVKEQKESGIITDYD | -0.746
HMEVNMEEKMEFVHSYIKTHKTFLFRQLLSESKSRTQVIVTFLVILELIKGGKISVTQENRTDDILINSL | -0.342
HMGQVFEGTFNRKANGKNSVTPAEGGEPVFIAERNSLHAMNGDLVKVSLLAKKKHQPREAQVIEILKRSD | 0.144
HMRQLISIYNNTIGADEIDQMRNILSNSGYKEGVDFAVQTADKKSVILVRRDLAGMIQEQLSGEGLPS | 0.0201
HMRASVTYVVQVNGKLRGKLEVAPDIDPEELKKLALEVENVKHSLQGWTVKKVIVIPGKMVSIAAGK | 0.0764
HMPSLGGLLALLKRNRKPDAMEALDRLISKEDRPETAEALENIREKVRNMQMREAEGLLLALMEP | -0.0372
HMQGQVLQETARKARSQLDSEIPGFNDALYQNLIKSSENYGYKAEEVAQWVDPRAIKVLNDAYQFQQLKAG | -0.0765
HMQEEELYPRLEEVINQHRGKGEDLIMVLHKAQNLFGYLPRRAQEMVAEGLNVSLNEVYGVITFYNFFST | -0.0621
HMDVIGLEAAKSAAVKDAGISSPTFTKATLDRDDGRSLYEIEFISGSTKYEYDIDALTGSVLSKKTRALS | -0.112
HMPDAGQRRYLELVTALAGARSLTIDDLERRAIRFAEWGNGYSGRTARQFIDTLLQDRGVAEEL | -0.405
HMQSEISRIGRILKERRLQLGYTQEYAAEKAGISYSYYTKIERGQQLPSLEVAMVLSKTFSLSMDRWL | -4.77
HMYSYSGSVINTYKVPVSVVLKDANGSAIASWDLPVDQSLGISAKDIATSSGTIEITGDGVNETKTVTFTK | -0.0188
HMSPLQLGNYNTLRITRFTDHGAYLDGGDVGEILMPKTYVLPEMKPGDEVRVFVYLDQEERLVGTTET | -0.017
HMDFTHFTLKQDGKFAGSSNLLHQAVIAAARLAAETGKPVTVMAHVRGGGTRKAVFNPDGTNDKIWN | -0.61
HMEKTKLPNLVDFTYRQAEALLQTHGLKVGKVERVPDVGQTVIKAKYKGKVISWGTELNKGEKIDLVIGKG | 0.189
HMELTVPDFTNMSLEDAINLAEKRDVRLEVTDSVFVKRLGRGFIYSQNPVAGSKVKKGRRILITINAIN | -2.53
